The values below come from publication PMC12084805.

Read-outs that look alike come from different tables or passages of the source.

What all share (experiment): EMSA
For data set [1], the target named is T1, POT-2 (Caenorhabditis elegans, UniProt O45595 1-251).
T1 sequence: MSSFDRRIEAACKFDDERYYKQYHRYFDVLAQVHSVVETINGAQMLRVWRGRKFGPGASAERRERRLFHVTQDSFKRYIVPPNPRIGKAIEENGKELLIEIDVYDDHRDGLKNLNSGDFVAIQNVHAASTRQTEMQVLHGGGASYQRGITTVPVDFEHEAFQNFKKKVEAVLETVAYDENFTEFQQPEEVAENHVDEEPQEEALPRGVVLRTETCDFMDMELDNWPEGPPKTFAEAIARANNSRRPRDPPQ

For data set [2], the target named is T2, POT-3 (Caenorhabditis elegans, UniProt G5EFG7 1-215).
T2 sequence: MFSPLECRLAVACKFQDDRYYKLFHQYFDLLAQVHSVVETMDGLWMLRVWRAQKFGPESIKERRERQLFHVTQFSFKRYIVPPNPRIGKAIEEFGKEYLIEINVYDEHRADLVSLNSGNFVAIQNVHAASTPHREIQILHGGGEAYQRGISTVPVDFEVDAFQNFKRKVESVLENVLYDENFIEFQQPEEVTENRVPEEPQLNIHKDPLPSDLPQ

Data set [3] has as its target T1, POT-2. This is another data set of the same source.
The target of data set [4] is T2, POT-3. This is another data set of the same source.

In the case of TTAGGCTTAGGC (ssDNA) [ss (TTAGGC)2], the binding result in data set [1] and in data set [2] was “binds” throughout.

In the case of TTAGGTTTAGGT (ssDNA) [ss (TTAGGT)2], the binding result in data set [3] and in data set [4] was “no binding” each time.

On to TTAGACTTAGAC (ssDNA) [ss (TTAGAC)2], for which the binding result in data set [3] and in data set [4] was “no binding” in each case.
